B1: Sample No. 1: [DFO-C(═O)-(1,3-phenylene)-C(═O)-Gly-Lys-Z2]p-Fab (Fab, V domains shown)
VH: QVQLVQSGAEVKKPGASVKVSCKASGYTFTNYGLSWVRQAPGQGLEWMGENHPGSGIIYHNEKFRGRVTLTADRSTSTAYMELSSLRSEDTAVYYCARSSGTRGFDYWGQGTLVTVSS
VL: DVVMTQTPLSLSVTPGQPASISCRSSQSIVHSNGNTYLEWYLQKPGQSPQLLIYRVSNRFSGVPDRFSGSGSGTDFTLKISRVEAEDVGVYYCFQGSHGPWTFGQGTKLEIKR
modifications: may carry the labeling moiety; sites not stated; [DFO-C(═O)-(1,3-phenylene)-C(═O)-Gly-Lys-Z2] labeling moiety bound via 2-iminothiolane to amino group(s) of the Fab, one or two per Fab by MS, sites and chain not stated; N-terminal Gln into pyroglutamic acid in a great majority (Example 2)
B2: Sample No. 3: [DOTA-CH2-(1,4-phenylene)-NH-C(═S)]p-Fab (Fab, V domains shown)
VH: B1 VH
VL: B1 VL
modifications: may carry the labeling moiety; sites not stated; [DOTA-CH2-(1,4-phenylene)-NH-C(═S)] (from p-SCN-Bn-DOTA) bound to amino group(s) of the Fab, one to four per Fab by MS, sites and chain not stated; N-terminal Gln into pyroglutamic acid in a great majority (Example 2)
B3: Sample No. 5: [DOTA-Gly-Lys-Z2]p-Fab (Fab, V domains shown)
VH: B1 VH
VL: B1 VL
modifications: may carry the labeling moiety; sites not stated; [DOTA-Gly-Lys-Z2] labeling moiety bound via 2-iminothiolane to amino group(s) of the Fab, one or two per Fab by MS, sites and chain not stated; N-terminal Gln into pyroglutamic acid in a great majority (Example 2)
B4: Sample No. 2: [DFO-C(═O)-CH2O-(1,3-phenylene)-C(═O)-Gly-Lys-Z2]p-Fab (Fab, V domains shown)
VH: B1 VH
VL: B1 VL
modifications: may carry the labeling moiety; sites not stated; [DFO-C(═O)-CH2O-(1,3-phenylene)-C(═O)-Gly-Lys-Z2] labeling moiety bound via 2-iminothiolane to amino group(s) of the Fab, one or two per Fab by MS, sites and chain not stated; N-terminal Gln into pyroglutamic acid in a great majority (Example 2)
B5: Sample No. 7: [DOTA-Met-Ile-NH-(CH2)2-Z1]p-Fab (Fab, V domains shown)
VH: B1 VH
VL: B1 VL
modifications: may carry the labeling moiety; sites not stated; [DOTA-Met-Ile-NH-(CH2)2-Z1] labeling moiety bound via 2-iminothiolane to amino group(s) of the Fab, one to three per Fab by MS, sites and chain not stated; N-terminal Gln into pyroglutamic acid in a great majority (Example 2)
B6: Sample No. 4: [DOTA]p-Fab (Fab, V domains shown)
VH: B1 VH
VL: B1 VL
modifications: may carry the labeling moiety; sites not stated; DOTA bound directly (via N-hydroxysulfosuccinimidyl DOTA) to amino group(s) of the Fab, one or two per Fab by MS, sites and chain not stated; N-terminal Gln into pyroglutamic acid in a great majority (Example 2)
B7: Sample No. 6: [DOTA-NH-CH2-(1,3-phenylene)-C(═O)-Gly-Lys-Z2]p-Fab (Fab, V domains shown)
VH: B1 VH
VL: B1 VL
modifications: may carry the labeling moiety; sites not stated; [DOTA-NH-CH2-(1,3-phenylene)-C(═O)-Gly-Lys-Z2] labeling moiety bound via 2-iminothiolane to amino group(s) of the Fab, one to three per Fab by MS, sites and chain not stated; N-terminal Gln into pyroglutamic acid in a great majority (Example 2)

molecular target: Human cancer-specific MUC1 peptide (PTL 1) (human); assay: ELISA, MUC1 peptide immobilized on 384-well plate, HRP anti-human Igκ detection, luminescence

Binder | EC50 [nM]
B1 | 0.29
B2 | 0.49
B3 | 0.31
B4 | 0.3
B5 | 0.31
B6 | 0.35
B7 | 0.3

From patent US20210340276A1
